Experimental data reported in the DeepSol protein solubility set.

test: soluble on expression in E. coli; label from the status in PepcDB or PDB records

Soluble on expression in E. coli, not soluble:
MGSDKIHHHHHHMTENEFLSQEEIDKLLSDSDTGGVLTPEEKDMIGEIGNIAMGSAATTLSMILGRDIHITVPTVREEKMKNVKSDFSGEQVVVSVEYTEGLEGLNVLVLDKKLVAVIADLMMGGSGEVETEELDEIKLSAVGEAMNQMMGSAATSLSELLGITINISPPKVEILNFDDPNTQFPPVTDNPEKDVAVVEFEMEIEGLPKSKFYQVISADLVKKMYEYFTKKQSEAAEKKEKKEEKKVKVEPVEFAELKPSETRKTEVPSDKLELLLDIPLKVTVELGRTRMTLKRVLEMIPGSIIELDKLTGEPVDILVNGKLIARGEVVVIDENFGVRITEIVSPKERLELLNE
MGSDKIHHHHHHMTETLLVTGAAGQLGRGVIRYLMDTHKVPPAKIIATTRNPENVADLAARGVVVRAADFNDATSLENAFKGADRVLIISTSDLDLKTGRRLKQHEAAVAAAKKAGVSHLLYTSMPNPEPVSPVLFAGDHYGTEQAIKASGIAYTIFRNGWYQENLFIALPHAIASGQWYTSAGDGRIAHGSRDDMAAAIAAGLASGSTDSKTYTLTGPQAYTTAEIAALVSEVTGKPLEVIQLPDEALTEGVKAAGVPEEFARVIVSFDANTRSGRIAMATDAVETLSGRKPRTLKQFLEANKAALAG
MGSDKIHHHHHHMTFGLLHRWLTDMGMTISKNTLRNWLTKDKTYLDELVCVLKSIALEKDSIVNCDETWCKVRKYDHYKKCYIGVLVNKARKTAIFFYENGSCGRDVLTDFLGDAELKSIMSDGYNAYVFIGNELKLGRFKDTVHQVCMSHAKNKFVKASNQGGEPTAERFSEILKEFFMRDREYDDAGLTPKERFQERQSLETKELLIELRSLLDSEQSKDSEFRSRYYKEALNYLNRFRKEIFAYLDDGELPIDNNLAERTIRKLTTQRNNSLHYGSDAGAEMAATYHSVIGTVKLLGSSIWNFIGTFFKNIFNGCRDYVNMVPDKITLATSQC
MGSDKIHHHHHHMTGLTEDLFGELLPPASPPQACVAGGGAPSPDKASRGKSVLPARPDPAIDALARRLPPNLYLGTSSWSYNGWNGLVYDGEYSDNLLSRKGLAAYSRHPLLRAAGIDRGFYGPIPLADYLSYAAQVPEQFRFLVKAPASVCDAWLRGSDGVGRLANAAFLDAEIAIRDFITPATSGLGAKCGPLLFQLSPLGSLANDAAAFLDRLDGFLSALPPLDPSITPHACYAVEMRDPVLLTPRYIKLLRRYGVRFCLSARDRLPPVHRQASAQALMDAEAPGPLVLRWMLHAGRPYEVAESIYAPFNRLVDEDPETRDAIADLVVRTLNAGQSATVIISNKAEGSAPLTCIRLAEAIAARL
MGSDKIHHHHHHMTHEFVTILHTNDLHSHVEHWPRIANWIKTRRAQLQAAGHFVLTFDVGDFIDRYDANTQATWGKANVELLNDCTFDGVTIGNNEGLGLPRDRMEDIYSERRFAVLLANIFENDHGLPKWAEEYRVFVTPKGTRISAFGLTAAYDLTYPLLDWLPAQPVETLEKLSDRVIAQSDIRILLSHLGLPTDQSLARRFKEISVILGAHTHHLLPKGQMVENTLLAAAGKYGENVGEVDLEIDEKHQVVSERAHTIKFDNLPEVESASAFLENWRESGRNILENQIISNLPTDRSTLQQIDDCADALMEKFQTKIAMISSGMFLDELPAGQLNAFQLLKDLPHTIHPMKIDILGSDLLKLFDEINLQHDHLLNQHINGSGFRGDKFGEIKFYGLHEKQVDPKQHYEIASLDHYYFLPWFHSLQSADVSFDFKNILRELTAGYYREKYSHQEAV
MGSDKIHHHHHHMTHQNSPLFLKSALRLYNRASFKASHKVIEEYSTSFSLSTWLLSPRIRNDIRNLYAVVRIADEIVDGTAHAAGCSTAKIEEILDAYEIAVLAAPQQRFNTDLVLQAYGETARRCDFEQEHVIAFFASMRKDLKANTHDPDSFTTYVYGSAEVIGLLCLSVFNQGRTISKKRLEIMQNGARSLGAAFQKINFLRDLAEDQQNLGRFYFPKTSQGTLTKEQKEDLIADIRQDLAIAHDAFPEIPVQARIGVISAYLLFQKLTDRIEATPTADLLRERIRVPLHIKLSTLARATMKGLSMSIYRKNS
MGSDKIHHHHHHMTHRITILCDNTVGPVSGTLGEHGFAALVEWEGGSLLFDTGMGETLLRNAQRLGRNLAAVPRVVISHGHYDHGGGLWPLLRTCGSKTVLAHPGIFAPRYRVKDTGDPLSIGIPFDEAFLRGQGAHFDFNDRFREVGPGLYLTGEVPRTTAFETGDTGLFCDEAGCRPDPISDDQSLVIRTERGLVLLLGCCHAGVVNTARWALECTGETVVHTVIGGTHLGFCGREQLDETVKSLRELGVHKLVGSHCTGFAAAARLMHEFPGRFHPSAVGYTLEV
MGSDKIHHHHHHMTIHKLKEKVASTDFEQHSYAFRRFVLDELRVYIPFAAACFTTIDPESLLSTGTVMDKQLEPIHTLILENEHTGSDYNHYFQLVDSSPHIATLHDATGGNLTASQRYTRILAPAGFHDELRAALIDQGKCWGHLTLFHSKHHSPFSREEQQLVNSLLPAITKKVKRLTFQSTFSPSPNSSHFEAAIMIFSDTFELLSANEAAHSLLSLLREQEQLGEGTFPRPIETLCVKIKATSSSKEEGEIDRWSVCIPAANGQLLTLYASKLTSELLPEQYAVISQNTSPFERLGYSLLYYGLTQREIQIVEQIVNGYTTKQISSHLYISTHTVQDHLKSIFAKMNVNSRRELLSFLNQANK
MGSDKIHHHHHHMTINFNRIYVIQSLSKANGDELTGQQLFDDVLQYFNTKYGDKDARIFNVDNKKELLHALENIKSHCETDGIKPIIHFEIHGLEDKTGLSLNQEDVNWGDIYVKFIEINAASKWNLFITMGVCFGNYSMLLIRPSLPAPFTGILGSFEELFEWDLYIRYNAFYQELLNSLDFEKALEALHDSNPALPDDYRYINSEQTFKNVYQKYFDTQFSDVKIKERFNLTIAEEKISFTNRNIKRQFYSKFRTNLLNTKKEFFIKDKRKFFMFDVFPGHQYIYCVNWEPNYH
MGSDKIHHHHHHMTISIPDTLTTDNSEKYIVSIRLRSGGLSFSGYDPSAGGSFFYRETEFDRAVSFISSLKEFFFAHEFLTWTYKRINVICVSPEYSLVPDNYWGDGKEGRLLDFSFSTLELHCLTDTLKEQQAKLVFGVDEEVYEFCSRSLLHPFFSHYMTSLLTLWTKESSASLPRQMYVVIERKRMDVACYAQGKLLFVNSYPIDQSDDIVYYILYVWKQAGLDQEKDQLLLAGESSSRMRVLERLRAYLRHVKPVEIPSEAYLLGTDVTKAPMDLISLLICE
MGSDKIHHHHHHMTKDYVIEMRNITKIFGEFVANDHINLNVRRGEIHALLGENGAGKSTLMNMLAGLLEPTSGEIVINGQSVKIDSPSKAAQLGIGMVHQHFMLVDAFTVAENIILGSETTKGGVIDLKKAIAEIKELSAKYGLEVDPTAKVADISVGAQQRVEILKTLYRGADLLIFDEPTAVLTPAEIAELLKIMKALVEEGKSIILITHKLDEIRAVADSVTVIRRGKSIETVAVEGATNQDLAEWMVGRSVSFKTEKVEASPKEVILSIKDLVVNENRGIPAVKGLSLDVRAGEVVGIAGIDGNGQSELIQAITGLRKVKSGSITIKGEEVVGKTPRKITEMQVSHVPEDRHRDGLVLPMTVAENFALQTYYKEPISKNGILNYNIINEKARALMEEFDVRGASELVPIKALSGGNQQKAIIAREIDRNPDLFIVSQPTRGLDVGAIEYIRKRLIAERDKGKAVLVVSFELDEILDVSDRIAVIHDGVIHGIVEPAKTNKQELGVLMAGGHIEKGEEHA
MGSDKIHHHHHHMTKKKIGIGFGTWAWGNKLVWDYKAETDDILLKKTFFDAINGGLDLIDSADSYGTGSLFGQSEKLIGDFLEELPKRKLKKVTIATKLAPFPWRIGRNGLDNAFQESNQRLKGNMTRVQLHWSTYRYAPWQEEQLLNGLGDLYEEGLIKEIGLSNTGPKRLNFLFQKLKKRGIKIKSIQMQLSLLTKPSLEDENIKIICDENEIEYLAYSPLGLGILTVPPNQSPKPTTFLRKSLYQRILPKTIELRTLLTHIGKKYSASQAEVALNWVRSHGAKPIVGIRNPNQAKDAISALNWSLTKSEKQKLDFCRNACLANMPLNPFTSP
MGSDKIHHHHHHMTKMLRTYKFRIYPTREQEEKLAKHFGHTRFVYNFFLNYANIIYRVMERPTYYNEWASVLVKLKKTNKYSWLNEVNSQALQQSLKDLERAFKNFFKKQAGYPKFKKKKFSRQTFRIPQHIQLYIKEDNPKYGCIFVPKFKEGIKVRLHRKLPKDGKIKQATFIKTATNKYYAAIVFEVQDAEVQNTSTGILGIDLGIKDTITLSDGKKYKMPDLSKYERQIKRLHRRLSRKQRGSKNWEKARLCLAKLYEKIVNIKNDWLHKITHDLVSESQAGKIVVEDLNIKGMVQNHRLARHIHMQSWRRFLELLEYKAKRCGIEVIKANRYYPSSQMCSECGYINKEVKDLSVREWTCPVCGAHHDRDVNAAKNLVRYGLMLSIGREPSEFTPVDSALAAEPERGLRAITG
MGSDKIHHHHHHMTKPPTLRPRFWETVPLDRMTPSEWEALCDGCGKCCLNKIEFEDTGEVAFTRIACRLLDGDSCRCSNYEIRRQFVPDCVQLSPATLPKIVYWMPRTCAYRLLHEGKSLPGWHYLLTGDRNSVHDAGASVQGWTVPEFEVAEEDWEDHIIEETP
MGSDKIHHHHHHMTNEYEHLNAIQKIGLSILKEIIAICKRHDLTYYVYGGTLLGAIRHQGFIPWDDDVDIAMSRKDFEKLKQYQNEFPQYMFLDTIQQKGHQWTAAHVVDTRYKLEVGKGMKKATMSVWVDILIIDGVPNPGTFKYKIFSAAYLTARLLYKFSNFSNEVDLEKDRSAIETFFISFARITHIEKVINQHWAGCFIDWISRRYDLDKCEYGATLGGPQKMGETQPKYWFGKGKELLFEDIIVNGMEETENFLTKFYGPNYMTPPPLDKRNQHNVRLVEKIV
MGSDKIHHHHHHMTNIGETIHQIRLSKGLTQQEVYSGIISRSFASRFESGANDIGASKLFAILDNLAISADELRFIHQNYQPSAYDQALWTIRHAYETLNFPALATWIREHRHSPHAYEQLIASYASILMLSYDHRSIGITTTTQPAFDHLRQAKTWTLQELKLVPVLIPIIASIDGLAALTPLTTRMAANCASYQTAWGDPFHVSNDLLDFYGSLFQTKLNFHDFQSAQNLKTKFTAIDSHQLNWDGRLSQQFWLGIWNLYFGDWQIGNQLLDEVSVLETHHHPRIDNTLFAIRNVRTKQAQTYRQSHQSHKHL
MGSDKIHHHHHHMTNIILICVDQMRADTIRILGNPSIITPNLDALSLNSVVFSNHFSAGSPCSPARTSLLTGQYPATHGSITKNHRLKSTTNLALEIKKIGLSSTLFGFTDTVIPPYIQEKEGIMPGFDVQCYMNLHNIGLSGWAKELQKKGYHVLPNIMDIYRAEKAPYNYHDSDTAFLTDQVINYVASQGQEFGFIHLSYFRPHPPFIAPAPYSEYYPEVNCQKPEVDLETFLSMHPFHECLFHQLYKNTFNNLSYKQIESILTERFSRDKRAYYGLITELDYHLGRLITFLKDKGVYDETLLIFTSDHGELLGDKWLYEKGGYFDQSFHVPLLIKPPKALRSKQEGKIVDSFTSSIDLMPTILDIINAPIPESVEGLSLAELLSDGKNDSTRKDIIYEHYTTLPTKQLNRTLTIKDESFKYVYCSQFEHLLFDLKSDPDELKNLATESKHLNTVAYYQDRLRAEKLL
